Source: paper doi:10.1101/2024.10.14.618187, “Molecular basis of interchain disulfide-bond formation in BMP-9 and BMP-10” (bioRxiv, 2024)
Numbering of substitutions follows the chain as printed. In names and notes the source's numbering stands.

Legend:
[1] = biological target: BMP-9 monomer (cysteinylated BMP-9 growth factor) (human) (UniProt Q9UK05)
[2] = biological target: BMP-9 dimer (disulfide-linked BMP-9 growth factor homodimer) (human) (UniProt Q9UK05)
[3] = biological target: the molecule itself; experiment: crystal structure; purified BMP-9 dimers at acidic pH: wild type 0.3 M sodium citrate pH 3.5; mutants 0.1 M acetic acid pH 4
[4] = biological target: T1, Pro-(X)-BMP-10 S385G, R353K, O95393; experiment: SDS-PAGE densitometry after IMAC purification; conditions: chain shown with the change
T1 chain: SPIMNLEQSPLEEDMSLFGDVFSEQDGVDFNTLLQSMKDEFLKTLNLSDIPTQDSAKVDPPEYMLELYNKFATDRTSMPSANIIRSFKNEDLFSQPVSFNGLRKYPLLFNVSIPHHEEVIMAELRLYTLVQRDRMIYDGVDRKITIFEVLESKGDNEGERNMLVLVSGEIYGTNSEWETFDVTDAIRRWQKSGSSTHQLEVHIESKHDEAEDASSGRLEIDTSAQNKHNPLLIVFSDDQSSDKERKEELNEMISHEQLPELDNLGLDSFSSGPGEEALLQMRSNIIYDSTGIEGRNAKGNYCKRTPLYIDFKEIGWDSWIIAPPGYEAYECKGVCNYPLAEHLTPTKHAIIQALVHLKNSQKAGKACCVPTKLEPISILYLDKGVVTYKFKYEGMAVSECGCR

[5] = biological target: T2, Pro-(X)-BMP-10 S385G, O95393; experiment: SDS-PAGE densitometry after IMAC purification; conditions: chain shown with the change
T2 chain: T1 chain with K332R

[6] = biological target: the molecule itself; experiment: non-reducing SDS-PAGE after IMAC, with densitometry; His-tagged pro-proteins purified from expi293 conditioned medium by IMAC, run non-reduced and reduced; shows the disulfide-linked dimer beside the monomer; bands quantified with ImageJ
[7] = biological target: T3, Pro-(X)-BMP-10 R353K, O95393; experiment: SDS-PAGE densitometry after IMAC purification; conditions: chain shown with the change
T3 chain: T1 chain with G364S

[8] = biological target: the molecule itself; experiment: crystal structure; BMP-10 Crystal Chimera; 25% 1,2-propanediol, 100 mM phosphate pH 6.2, 10% glycerol
BMP-10 monomer (human) = BMP-10 monomer (human) (UniProt O95393)
BMP-10 dimer (human) = BMP-10 dimer (human) (UniProt O95393)

BMP-9 monomer (cysteinylated BMP-9 growth factor) (from UniProt Q9UK05 320-429) (ligand)
EC50 of pSMAD1/5/9 (western blot) in serum-starved HUVECs, 45 minutes, monomers 0.01–54 ng/mL [1]: 124 pM

BMP-9 dimer (disulfide-linked BMP-9 growth factor homodimer) (from UniProt Q9UK05 320-429) (ligand)
EC50 of pSMAD1/5/9 (western blot) in serum-starved HUVECs, 45 minutes, dimers 0.001–1.62 ng/mL [2]: 3.3 pM

B1: BMP-9 G389S dimer (ligand, human, UniProt Q9UK05 320-429, looked up)
chain: SSGAGSHCQKTSLRVNFEDIGWDSWIIAPKEYEAYECKGGCFFPLADDVTPTKHAIVQTLVHLKFPTKVSKACCVPTKLSPISVLYKDDMGVPTLKYHYEGMSVAECGCR
modifications: interchain disulfide at Cys-392
notes: human BMP-9 growth factor domain from a mutant of Pro-(X)-BMP-9 (proBMP9 residues 23-429, A321S, RRKR replaced by IEGR); numbers count on the precursor; Rows of m3 with m3 mean the two chains of the dimer; source: expi293 (suspension HEK293), mutant of Pro-(X)-BMP-9; purified dimer
binding result [3]: binds

B2: BMP-9 G389S, K357R dimer (ligand, human, UniProt Q9UK05 320-429, looked up)
chain: B1 chain with K38R
modifications: interchain disulfide at Cys-392
notes: human BMP-9 growth factor domain from a mutant of Pro-(X)-BMP-9 (proBMP9 residues 23-429, A321S, RRKR replaced by IEGR); numbers count on the precursor; Rows of m4 with m4 mean the two chains of the dimer; also called BMP-9 double-mutant; source: expi293 (suspension HEK293), mutant of Pro-(X)-BMP-9; purified dimer
binding result [3]: binds

B3: Pro-(X)-BMP-10, O95393 S385G; R353K (protein)
chain: T1 chain
other: dimer over monomer ratio [4]: 0.41

B4: Pro-(X)-BMP-10, O95393 S385G (protein)
chain: T1 chain with K332R
other: dimer over monomer ratio [5]: 0.42

B5: Pro-(fr)-BMP-10 (natural protein, human, UniProt O95393 22-424, looked up)
chain: T1 chain with G291A, I292R, E293I, G294R, K332R, G364S
notes: human proBMP10 residues 22-424 with the natural furin site; secreted partially processed; Partly cut by furin into prodomain and growth factor; also called Pro-BMP-10 with unmodified furin processing site; wild-type BMP-10; source: expi293 (suspension HEK293), secreted; purified by IMAC; not shown: 8xHis, N-terminal, kept
binding result [6]: binds

B6: Pro-(X)-BMP-10, O95393 R353K (protein)
chain: T1 chain with G364S
other: dimer over monomer ratio [7]: 0.9

B7: BMP-10 Crystal Chimera (growth factor from Pro9-(X)-BMP-10 Crystal Chimera) (ligand, human)
chain: DDGNYCKRTPLYIDFKEIGWDSWIIAPPGYEAYECRGVCFFPLAEHLTPTKHAIIQTLVHLKNSQKASKACCVPTKLEPISILYLDKGVVTLKYKYEGMAVSECGCR
notes: human proBMP10 residues 320-424 with five residues replaced by BMP-9 crystal contacts; numbers count on the precursor; Expressed behind the BMP-9 prodomain (proBMP9 residues 23-315); also called chimeric BMP-10; source: expi293 (suspension HEK293), expressed as Pro9-(X)-BMP-10 Crystal Chimera; purified
binding result [8]: binds

B8: Pro-(fr)-BMP-9 (natural protein, human, UniProt Q9UK05 23-429, looked up)
chain: KPLQSWGRGSAGGNAHSPLGVPGGGLPEHTFNLKMFLENVKVDFLRSLNLSGVPSQDKTRVEPPQYMIDLYNRYTSDKSTTPASNIVRSFSMEDAISITATEDFPFQKHILLFNISIPRHEQITRAELRLYVSCQNHVDPSHDLKGSVVIYDVLDGTDAWDSATETKTFLVSQDIQDEGWETLEVSSAVKRWVRSDSTKSKNKLEVTVESHRKGCDTLDISVPPGSRNLPFFVVFSNDHSSGTKETRLELREMISHEQESVLKKLSKDGSTEAGESSHEEDTDGHVAAGSTLARRKRSSGAGSHCQKTSLRVNFEDIGWDSWIIAPKEYEAYECKGGCFFPLADDVTPTKHAIVQTLVHLKFPTKVGKACCVPTKLSPISVLYKDDMGVPTLKYHYEGMSVAECGCR
notes: human proBMP9 residues 23-429 with the natural furin site; secreted partially processed; Partly cut by furin into prodomain and growth factor (12 and 24 kDa forms on the gel); also called Pro-BMP-9 with unmodified furin processing site; wild-type BMP-9; source: expi293 (suspension HEK293), secreted; purified by IMAC; not shown: 8xHis, N-terminal, kept
binding result [6]: binds

B9: Pro-(X)-BMP-9 K357R (natural protein, human, UniProt Q9UK05 23-429, looked up)
chain: B8 chain with R294I, R295E, K296G, K335R
notes: also called K357R BMP-9; source: expi293 (suspension HEK293), secreted; purified by IMAC; not shown: 8xHis, N-terminal, kept
binding result [6]: binds

B10: Pro-(X)-BMP-9 G389S (natural protein, human, UniProt Q9UK05 23-429, looked up)
chain: B8 chain with R294I, R295E, K296G, G367S
notes: also called G389S BMP-9; source: expi293 (suspension HEK293), secreted; purified by IMAC; not shown: 8xHis, N-terminal, kept
binding result [6]: binds

B11: Pro-(X)-BMP-9 (natural protein, human, UniProt Q9UK05 23-429, looked up)
chain: B8 chain with R294I, R295E, K296G
notes: human proBMP9 residues 23-429, furin site RRKR replaced by factor X site IEGR; Secreted unprocessed as a monomer-dimer mixture; also called Pro-BMP-9 with factor-X processing site; Pro-BMP-9 wild-type; source: expi293 (suspension HEK293), secreted; purified from conditioned medium by IMAC; not shown: 8xHis, N-terminal, kept
binding result [6]: binds

B12: Pro-(X)-BMP-9 G389S, K357R (natural protein, human, UniProt Q9UK05 23-429, looked up)
chain: B8 chain with R294I, R295E, K296G, K335R, G367S
notes: also called G389S, K357R BMP-9; BMP-9 double mutant; source: expi293 (suspension HEK293), secreted; purified by IMAC; not shown: 8xHis, N-terminal, kept
binding result [6]: binds

B13: Pro-(fr)-Act-A (natural protein, human, UniProt P08476 27-426, looked up)
chain: EGHSAAPDCPSCALAALPKDVPNSQPEMVEAVKKHILNMLHLKKRPDVTQPVPKAALLNAIRKLHVGKVGENGYVEIEDDIGRRAEMNELMEQTSEIITFAESGTARKTLHFEISKEGSDLSVVERAEVWLFLKVPKANRTRTKVTIRLFQQQKHPQGSLDTGEEAEEVGLKGERSELLLSEKVVDARKSTWHVFPVSSSIQRLLDQGKSSLDVRIACEQCQESGASLVLLGKKKKKEEEGEGKKKGGGEGGAGADEEKEQSHRPFLMLQARQSEDHPHRRRRRGLECDGKVNICCKKQFFVSFKDIGWNDWIIAPSGYHANYCEGECPSHIAGTSGSSLSFHSTVINHYRMRGHSPFANLKSCCVPTKLRPMSMLYYDDGQNIIKKDIQNMIVEECGCS
notes: human proINHBA residues 27-426; The results call it N-terminally histidine-tagged and purified by that tag; the methods say 'with no tag or processing site'; Furin processing incomplete; also called Pro-Activin-A; Pro-Act-A; source: expi293 (suspension HEK293), secreted; purified from conditioned medium by the histidine tag; not shown: His tag, N-terminal, kept
binding result [6]: binds

B14: BMP-10 monomer (ligand)
chain: NAKGNYCKRTPLYIDFKEIGWDSWIIAPPGYEAYECRGVCNYPLAEHLTPTKHAIIQALVHLKNSQKASKACCVPTKLEPISILYLDKGVVTYKFKYEGMAVSECGCR
modifications: cysteinylated (+119 Da); the paper takes the site to be the interchain cysteine
EC50 of pSMAD1/5/9 (western blot) in serum-starved HUVECs, 45 minutes, monomers 0.01–54 ng/mL (BMP-10 monomer (human)): 164 pM

B15: BMP-10 dimer (ligand)
chain: B14 chain
modifications: interchain disulfide
EC50 of pSMAD1/5/9 (western blot) in serum-starved HUVECs, 45 minutes, dimers 0.001–1.62 ng/mL (BMP-10 dimer (human)): 5.9 pM

B16: Pro-(fr)-TGF-β2 (natural protein, human, UniProt P61812-1 19-414, looked up)
chain: LSLSTSSTLDMDQFMRKRIEAIRGQILSKLKLTSPPEDYPEPEEVPPEVISIYNSTRDLLQEKASRRAAACERERSDEEYYAKEVYKIDMPPFFPSENAIPPTFYRPYFRIVRFDVSAMEKNASNLVKAEFRVFRLQNPKARVAEQRIELYQILKSKDLTSPTQRYIDSKVVKTRAEGEWLSFDVTDAVHEWLHHKDRNLGFKISLHCPCCTFVPSNNYIIPNKSEELEARFAGIDGTSTYTSGDQKTIKSTRKKNSGKTPHLLLMLLPSYRLESQQTNRRKKRALDAAYCFRNVQDNCCLRPLYIDFKRDLGWKWIHEPKGYNANFCAGACPYLWSSDTQHSRVLSLYNTINPEASASPCCVSQDLEPLTILYYIGKTPKIEQLSNMIVKSCKCS
notes: human proTGFβ2 residues 19-414; Behind the mouse Ig signal peptide and the His tag, no processing site after the tag; Furin processing incomplete; also called Pro-TGF-β2; source: expi293 (suspension HEK293), secreted; purified from conditioned medium by the histidine tag; not shown: 8xHis, N-terminal, kept
binding result [6]: binds
